Columns and labels:
[1] = target: the molecule itself; assay: SEC-MALS; SEC-MALS with QELS, Superdex 200 (10/300), 293 K, gel filtration buffer (50 mM HEPES pH 7.5, 150 mM NaCl, 2 mM MgCl2, 0.25 mM TCEP); no nucleotide added; WT at 40 µM, S87L at 7.5 µM; monomer to dimer
[2] = target: the molecule itself; assay: SEC-MALS; SEC-MALS with QELS, Superdex 200 (10/300), 293 K, gel filtration buffer; 2 mM Mg-AMPPNP added to the sample, 30 min on ice before injection; WT at 40 µM, T424R at 7.5 µM; monomer to dimer

Row | Protein | stoichiometry N [1] | stoichiometry N [2]
1 | MORC2(1–603) S87L (domain or fragment, human, UniProt Q9Y6X9-1 1-603, looked up, also called S87L variant; source: Sf9 insect cells (baculovirus), purified as for wild type; not shown: tandem StrepII, N-terminal, cleaved) MAFTNYSSLNRAQLTFEYLHTNSTTHEFLFGALAELVDNARDADATRIDIYAERREDLRGGFMLCFLDDGAGMDPSDAASVIQFGKLAKRTPESTQIGQYGNGLKSGSMRIGKDFILFTKKEDTMTCLFLSRTFHEEEGIDEVIVPLPTWNARTREPVTDNVEKFAIETELIYKYSPFRTEEEVMTQFMKIPGDSGTLVIIFNLKLMDNGEPELDIISNPRDIQMAETSPEGTKPERRSFRAYAAVLYIDPRMRIFIHGHKVQTKRLSCCLYKPRMYKYTSSRFKTRAEQEVKKAEHVARIAEEKAREAESKARTLEVRLGGDLTRDSRVMLRQVQNRAITLRREADVKKRIKEAKQRALKEPKELNFVFGVNIEHRDLDGMFIYNCSRLIKMYEKVGPQLEGGMACGGVVGVVDVPYLVLEPTHNKQDFADAKEYRHLLRAMGEHLAQYWKDIAIAQRGIIKFWDEFGYLSANWNQPPSSELRYKRRRAMEIPTTIQCDLCLKWRTLPFQLSSVEKDYPDTWVCSMNPDPEQDRCEASEQKQKVPLGTFRKDMKTQEEKQKQLTEKIRQQQEKLEALQKTTPIRSQADLKKLPLEVTTRPST | 2 | –
2 | MORC2(1–603) T424R (domain or fragment, human, UniProt Q9Y6X9-1 1-603, looked up, also called T424R variant; source: Sf9 insect cells (baculovirus), purified as for wild type; not shown: tandem StrepII, N-terminal, cleaved) MAFTNYSSLNRAQLTFEYLHTNSTTHEFLFGALAELVDNARDADATRIDIYAERREDLRGGFMLCFLDDGAGMDPSDAASVIQFGKSAKRTPESTQIGQYGNGLKSGSMRIGKDFILFTKKEDTMTCLFLSRTFHEEEGIDEVIVPLPTWNARTREPVTDNVEKFAIETELIYKYSPFRTEEEVMTQFMKIPGDSGTLVIIFNLKLMDNGEPELDIISNPRDIQMAETSPEGTKPERRSFRAYAAVLYIDPRMRIFIHGHKVQTKRLSCCLYKPRMYKYTSSRFKTRAEQEVKKAEHVARIAEEKAREAESKARTLEVRLGGDLTRDSRVMLRQVQNRAITLRREADVKKRIKEAKQRALKEPKELNFVFGVNIEHRDLDGMFIYNCSRLIKMYEKVGPQLEGGMACGGVVGVVDVPYLVLEPRHNKQDFADAKEYRHLLRAMGEHLAQYWKDIAIAQRGIIKFWDEFGYLSANWNQPPSSELRYKRRRAMEIPTTIQCDLCLKWRTLPFQLSSVEKDYPDTWVCSMNPDPEQDRCEASEQKQKVPLGTFRKDMKTQEEKQKQLTEKIRQQQEKLEALQKTTPIRSQADLKKLPLEVTTRPST | – | 2
